Where no end group is shown, it is not given here. [ ]: non-standard residue; d: D form.
T1: D-PIK(int.)
T1 sequence: RKKYKYRRK

T2: D-PIK(reversed)
T2 sequence: KRRYKYKKR

T3: D-PIK
T3 sequence: RKKYKYRRK


Assays:
[1] = test system: T1, D-PIK(int.)
[2] = test system: T2, D-PIK(reversed)
[3] = test system: T3, D-PIK
[4] = target: myosin light chain kinase (215 kDa MLCK expressed by Caco-2 cells) (UniProt Q15746 1-1914, limits assumed); assay: cell-based or functional assay
Sequence of myosin light chain kinase (215 kDa MLCK expressed by Caco-2 cells) (Q15746 whole entry): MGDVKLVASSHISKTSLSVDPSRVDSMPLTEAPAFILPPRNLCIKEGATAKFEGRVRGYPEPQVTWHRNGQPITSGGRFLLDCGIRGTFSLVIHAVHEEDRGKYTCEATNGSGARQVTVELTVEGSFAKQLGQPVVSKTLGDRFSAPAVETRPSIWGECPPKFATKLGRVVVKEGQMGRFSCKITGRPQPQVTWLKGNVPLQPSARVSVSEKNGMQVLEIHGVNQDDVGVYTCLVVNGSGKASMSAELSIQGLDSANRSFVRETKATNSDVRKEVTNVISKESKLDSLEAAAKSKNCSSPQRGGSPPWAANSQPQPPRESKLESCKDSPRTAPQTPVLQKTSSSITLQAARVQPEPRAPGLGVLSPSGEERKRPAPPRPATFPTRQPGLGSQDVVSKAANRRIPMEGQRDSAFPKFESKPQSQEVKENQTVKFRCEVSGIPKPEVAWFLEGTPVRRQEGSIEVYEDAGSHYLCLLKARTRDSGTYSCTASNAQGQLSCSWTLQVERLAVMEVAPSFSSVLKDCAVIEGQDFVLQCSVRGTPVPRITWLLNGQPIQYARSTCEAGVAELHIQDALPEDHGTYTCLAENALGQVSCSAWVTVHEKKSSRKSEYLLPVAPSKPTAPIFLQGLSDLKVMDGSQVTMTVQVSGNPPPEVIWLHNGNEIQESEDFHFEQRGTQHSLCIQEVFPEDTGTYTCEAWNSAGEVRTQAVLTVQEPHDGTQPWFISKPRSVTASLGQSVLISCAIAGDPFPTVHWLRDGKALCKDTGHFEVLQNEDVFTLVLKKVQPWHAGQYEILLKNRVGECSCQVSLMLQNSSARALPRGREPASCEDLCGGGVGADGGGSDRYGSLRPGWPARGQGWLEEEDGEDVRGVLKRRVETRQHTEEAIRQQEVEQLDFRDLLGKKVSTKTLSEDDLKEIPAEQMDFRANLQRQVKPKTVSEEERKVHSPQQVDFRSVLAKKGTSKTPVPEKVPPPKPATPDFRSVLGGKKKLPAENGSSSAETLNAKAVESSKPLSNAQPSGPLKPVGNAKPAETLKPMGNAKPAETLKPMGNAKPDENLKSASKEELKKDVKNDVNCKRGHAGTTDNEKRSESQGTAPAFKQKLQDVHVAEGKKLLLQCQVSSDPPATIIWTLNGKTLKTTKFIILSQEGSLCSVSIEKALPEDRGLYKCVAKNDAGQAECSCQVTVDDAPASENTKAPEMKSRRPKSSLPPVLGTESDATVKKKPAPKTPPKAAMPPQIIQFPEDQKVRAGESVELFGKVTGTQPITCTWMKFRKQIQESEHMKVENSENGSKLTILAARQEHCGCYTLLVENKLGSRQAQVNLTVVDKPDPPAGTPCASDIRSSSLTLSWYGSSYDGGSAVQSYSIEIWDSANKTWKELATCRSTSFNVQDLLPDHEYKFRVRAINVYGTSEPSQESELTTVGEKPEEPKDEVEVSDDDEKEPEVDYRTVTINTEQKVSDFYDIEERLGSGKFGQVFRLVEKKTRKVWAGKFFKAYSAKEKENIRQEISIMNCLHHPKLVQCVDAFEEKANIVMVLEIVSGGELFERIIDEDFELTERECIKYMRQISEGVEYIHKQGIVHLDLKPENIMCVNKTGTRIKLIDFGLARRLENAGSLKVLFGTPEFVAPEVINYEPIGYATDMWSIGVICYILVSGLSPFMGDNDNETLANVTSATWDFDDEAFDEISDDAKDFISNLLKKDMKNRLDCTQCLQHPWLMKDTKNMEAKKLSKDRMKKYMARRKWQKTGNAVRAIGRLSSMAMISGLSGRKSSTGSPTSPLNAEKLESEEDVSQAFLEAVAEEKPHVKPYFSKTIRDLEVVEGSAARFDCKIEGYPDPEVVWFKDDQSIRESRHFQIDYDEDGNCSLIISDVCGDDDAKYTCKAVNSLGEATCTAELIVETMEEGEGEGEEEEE

Row | Molecule | CaMPKII activity (phosphorylation of plate-bound pseudo-substrate peptide, anti-phosphoserine ELISA) [1] | CaMPKII activity (phosphorylation of plate-bound pseudo-substrate peptide, anti-phosphoserine ELISA) [2] | CaMPKII activity (phosphorylation of plate-bound pseudo-substrate peptide, anti-phosphoserine ELISA) [3] | Δ TER (elevation in transepithelial resistance of Caco-2 monolayers, 500 µM peptide, one hour) [4] [%]
1 | Calcium/calmodulin dependent protein kinase II (CaMPKII) | Neither D-PIK nor D-PIK(reversed) nor D-PIK(int) demonstrated striking inhibitory effects toward PKA or CaMPKII at concentrations up to 5 mM | Neither D-PIK nor D-PIK(reversed) nor D-PIK(int) demonstrated striking inhibitory effects toward PKA or CaMPKII at concentrations up to 5 mM | Neither D-PIK nor D-PIK(reversed) nor D-PIK(int) demonstrated striking inhibitory effects toward PKA or CaMPKII at concentrations up to 5 mM | 
2 | [dR][dK][dK][dY][dK][dY][dR][dR][dK]-NH2 [D-PIK] |  |  |  | 41
3 | RKK[dY][dK][dY]RRK-NH2 [D-PIK(int.)] |  |  |  | 47
4 | RKKYKYRRK-NH2 (not fully specified; printed as Arg-Lys-Lys-Tyr-Lys-Tyr-Arg-Arg-Lys) [PIK (SEQ ID NO: 12)] |  |  |  | 45
5 | [dK][dR][dR][dY][dK][dY][dK][dK][dR]-NH2 [D-PIK(reversed)] |  |  |  | 50

Source: patent US20050261196A1 (UNIVERSITY OF CHICAGO, published 2005)
